{
  "source": "patent US20220017622A1",
  "about": "(Pfizer, published 2022)",
  "biological_target": "T1, human B7-H4 on cells (human, UniProt Q7Z7D3 25-282)",
  "T1 sequence (looked up)": "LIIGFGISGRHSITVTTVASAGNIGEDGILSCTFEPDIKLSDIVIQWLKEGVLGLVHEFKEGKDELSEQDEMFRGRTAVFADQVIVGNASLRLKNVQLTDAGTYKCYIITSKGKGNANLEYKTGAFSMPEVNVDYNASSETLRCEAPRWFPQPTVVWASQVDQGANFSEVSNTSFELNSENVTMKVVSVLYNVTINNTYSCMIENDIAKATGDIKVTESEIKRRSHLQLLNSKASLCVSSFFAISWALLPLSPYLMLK",
  "assay": "cell-based or functional assay",
  "data": [
    {"binder": "B7-H4xCD3 bispecific antibody 1130 (bispecific antibody, IgG2) heavy 1: EVQLVESGGGLVQPGGSLRLSCAASGGSFSGYYWNWIRQPPGKGLEWIGEINHSGSATYNPSLKSRVTISVDTAKNSLYLQMNSLRAEDTAVYYCARGLYNWNVDHWGQGTLVTVSSASTKGPSVFPLAPCSRSTSESTAALGCLVKDYFPEPVTVSWNSGALTSGVHTFPAVLQSSGLYSLSSVVTVPSSNFGTQTYTCNVDHKPSNTKVDKTVERKCEVECPECPAPPVAGPSVFLFPPKPKDTLMISRTPEVTCVVVAVSHEDPEVQFNWYVDGVEVHNAKTKPREEQFNSTFRVVSVLTVVHQDWLNGKEYKCKVSNKGLPSSIEKTISKTKGQPREPQVYTLPPSREEMTKNQVSLTCEVKGFYPSDIAVEWESNGQPENNYKTTPPMLDSDGSFFLYSKLTVDKSRWQQGNVFSCSVMHEALHNHYTQKSLSLSPG light 1: DIQMTQSPSSLSASVGDRVTITCRASQGIRNDLGWYQQKPGKAPKRLIYAASSLQSGVPSRFSGSGSGTDFTLTISSLQPEDFATYYCLQHNAYPRTFGGGTKVEIKRTVAAPSVFIFPPSDEQLKSGTASVVCLLNNFYPREAKVQWKVDNALQSGNSQESVTEQDSKDSTYSLSSTLTLSKADYEKHKVYACEVTHQGLSSPVTKSFNRGEC heavy 2: EVQLVESGGGLVQPGGSLRLSCAASGFTFSDYYMTWVRQAPGKGLEWVAFIRNQARGYTSDHNPSVKGRFTISRDNAKNSLYLQMNSLRAEDTAVYYCARDRPSYYVLDYWGQGTTVTVSSASTKGPSVFPLAPCSRSTSESTAALGCLVKDYFPEPVTVSWNSGALTSGVHTFPAVLQSSGLYSLSSVVTVPSSNFGTQTYTCNVDHKPSNTKVDKTVERKCRVRCPRCPAPPVAGPSVFLFPPKPKDTLMISRTPEVTCVVVAVSHEDPEVQFNWYVDGVEVHNAKTKPREEQFNSTFRVVSVLTVVHQDWLNGKEYKCKVSNKGLPSSIEKTISKTKGQPREPQVYTLPPSREEMTKNQVSLTCLVKGFYPSDIAVEWESNGQPENNYKTTPPMLDSDGSFFLYSRLTVDKSRWQQGNVFSCSVMHEALHNHYTQKSLSLSPGK light 2: DIQMTQSPSSLSASVGDRVTITCTSSQSLFNVRSQKNYLAWYQQKPGKAPKLLIYWASTRESGVPSRFSGSGSGTDFTLTISSLQPEDFATYYCKQSYDLFTFGGGTKVEIKRTVAAPSVFIFPPSDEQLKSGTASVVCLLNNFYPREAKVQWKVDNALQSGNSQESVTEQDSKDSTYSLSSTLTLSKADYEKHKVYACEVTHQGLSSPVTKSFNRGEC", "values": [
      {"measurement": "T cell mediated tumor cell killing EC50, HCC1954-Luc", "value": 73.7, "unit": "µM"},
      {"measurement": "T cell mediated tumor cell killing, OVCAR3-Luc", "value": 810}
    ]}
  ]
}
